Laboratory results as given in patent publication US20190071480A1 (Biogen, published 2019).
Each block holds one binder with its values, some of them ahead of it.

Columns and labels:
[1] = target: T1, extracellular domain of activin receptor type IIB (ActRIIBecd), biotinylated (Homo sapiens (Human), UniProt Q13705 27-117, amino-biotinylated with amine-PEG3-Biotin); test: Mean KD column of Table 5; method not restated (BIAcore as Example 5); species also listed in Table 4
T1 construct: immobilised on a streptavidin-coated sensor chip; also called biotinylated ActRIIBecd; extracellular domain of ActRIIB
T1 sequence: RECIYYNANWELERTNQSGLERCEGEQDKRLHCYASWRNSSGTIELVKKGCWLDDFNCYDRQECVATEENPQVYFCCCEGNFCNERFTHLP
Outline: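 SPR at 25° C. and 10 μl/min: analyte at 1.11-90 nM (five concentrations, glycine buffer pH 4.5) passed over a control cell, then over streptavidin-captured biotinylated ActRIIBecd at 50-250 RU. Kinetic and equilibrium constants came from control-subtracted sensorgrams.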

[2] = target: T1, extracellular domain of activin …; test: BIAcore SPR as Example 5 (method not restated); SD ±1.17 nM
Experimental: (§1) Biosensor experiments. In one embodiment, experiments were performed on a BIAcore™ T100/T200 instrument (Pharmacia Biosensor AB) in the multichannel mode (serial flow path involving flow cells 1+2+3+4). Flow rate was 10 μl/min; temperature was 25° C.; and data were recorded at 2.5 points/s. All four segments of a sensor chip CMS were coated with streptavidin (Sigma) to a density of 2000 pg/mm² (2000 resonance units) by the aminocoupling procedure. ActRIIBecd (10 mg) and amine-PEG3-Biotin (10 mg, Pierce, Rockford, Ill.) were dissolved in 200 μl H₂O and 10 mg NaCNBH₃ was added to prepare biotinylated ActRIIBecd. The reaction mixture was heated at 70° C. for 24 h, after that a further 10 mg NaCNBH₃ was added and the reaction was heated at 70° C. for another 24 h. After cooling to room temperature, the mixture was desalted with the spin column (3,000 molecular weight cut off (MWCO)). […] Sensograms were recorded during flow of the analyte (the ActRIIBecd-associated polypeptides (i.e., domains) as previously described) first through flow cell 1 (control) then through flow cell 2 (biotinylated ActRIIBecd). […] The sensograms obtained at 1.11, 3.33, 10, 30, and 90 nM analyte were evaluated for equilibrium binding, association rate, and dissociation rate by using the programs supplied with the instrument (BIA evaluation 2.1; Software Handbook. 1995; Pharmacia Biosensor AB).

[3] = target: T1, extracellular domain of activin …; test: BIAcore SPR as Example 5 (method not restated); SD ±1.95 nM
Experimental: as §1

[4] = target: T1, extracellular domain of activin …; test: BIAcore SPR as Example 5 (method not restated); SD ±2.63 nM
Experimental: as §1

[5] = target: T1, extracellular domain of activin …; test: BIAcore SPR as Example 5 (method not restated); SD ±1.43 nM
Experimental: as §1

[6] = target: T1, extracellular domain of activin …; test: BIAcore SPR as Example 5 (method not restated); SD ±1.33 nM
Experimental: as §1

[7] = target: T1, extracellular domain of activin …; test: BIAcore SPR as Example 5 (method not restated); SD ±2.07 nM
Experimental: as §1

[8] = target: T1, extracellular domain of activin …; test: BIAcore SPR as Example 5 (method not restated); SD ±1.59 nM
Experimental: as §1

[9] = target: T1, extracellular domain of activin …; test: BIAcore SPR as Example 5 (method not restated); SD ±2.36 nM
Experimental: as §1

[10] = target: T1, extracellular domain of activin …; test: BIAcore SPR as Example 5 (method not restated); SD ±1.84 nM
Experimental: as §1

[11] = target: T1, extracellular domain of activin …; test: BIAcore SPR as Example 5 (method not restated); SD ±1.11 nM
Experimental: as §1

[12] = target: T1, extracellular domain of activin …; test: BIAcore SPR as Example 5 (method not restated); SD ±2.65 nM
Experimental: as §1

[13] = target: T1, extracellular domain of activin …; test: BIAcore SPR as Example 5 (method not restated); SD ±1.04 nM
Experimental: as §1

[14] = target: T1, extracellular domain of activin …; test: BIAcore SPR as Example 5 (method not restated); SD ±1.18 nM
Experimental: as §1

[15] = target: T1, extracellular domain of activin …; test: BIAcore SPR as Example 5 (method not restated); SD ±1.71 nM
Experimental: as §1

[16] = target: T1, extracellular domain of activin …; test: BIAcore SPR, biotinylated ActRIIBecd on chip; SD ±17.89 nM
Experimental: as §1

[17] = target: T1, extracellular domain of activin …; test: BIAcore SPR, biotinylated ActRIIBecd on chip; SD ±16.78 nM
Experimental: as §1

Kd [1]: 5.77 nM | Kd [2]: 5.77 nM
B1: SEQ ID NO: 340, cysteine pairs C15-C15^b, C29-C62^a, C30-C64^a, C88-C92^a (designed binder)
chain: AQAKHKQRKRLKSSCKRHPLYNSKDPKACCVPTELSAPSPLYLDENEKPVLKNYQDMVVHGCGCRVDFKDVGWNDHAVAPPGYHAFYCHGECPFPLADHLNSDNHAIVQTKVNSV
modifications: disulfides C15-C15 (inter), C29-C62 (intra), C30-C64 (intra), C88-C92 (intra)
notes: homodimer by intermolecular disulfide

Kd [3]: 7.19 nM | Kd [1]: 7.19 nM
B2: SEQ ID NO: 340, cysteine pairs C15-C15^b, C29-C64^a, C30-C62^a, C88-C92^a (designed binder)
chain: AQAKHKQRKRLKSSCKRHPLYNSKDPKACCVPTELSAPSPLYLDENEKPVLKNYQDMVVHGCGCRVDFKDVGWNDHAVAPPGYHAFYCHGECPFPLADHLNSDNHAIVQTKVNSV
modifications: disulfides C15-C15 (inter), C29-C64 (intra), C30-C62 (intra), C88-C92 (intra)
notes: as for B1

Kd [1]: 30.1 nM | Kd [4]: 30.1 nM
B3: SEQ ID NO: 340, cysteine pairs C15-C29^a (designed binder)
chain: AQAKHKQRKRLKSSCKRHPLYNSKDPKACCVPTELSAPSPLYLDENEKPVLKNYQDMVVHGCGCRVDFKDVGWNDHAVAPPGYHAFYCHGECPFPLADHLNSDNHAIVQTKVNSV
modifications: disulfides C15-C29 (intra)

Kd [1]: 5.98 nM | Kd [5]: 5.98 nM
B4: SEQ ID NO: 308, cysteine pairs C59-C59^b, C8-C41^a, C9-C43^a, C88-C92^a (designed binder)
chain: NSKDPKACCVPTELSAPSPLYLDENEKPVLKNYQDMVVHGCGCRGQAKRKGYKRLKSSCKRHPLYVDFKDVGWNDHAVAPPGYHAFYCHGECPFPLADHLNSDNHAIVQTKVNSV
modifications: disulfides C59-C59 (inter), C8-C41 (intra), C9-C43 (intra), C88-C92 (intra)
notes: as for B1

Kd [6]: 6.11 nM | Kd [1]: 6.11 nM
B5: SEQ ID NO: 308, cysteine pairs C59-C59^b, C8-C43^a, C9-C41^a, C88-C92^a (designed binder)
chain: NSKDPKACCVPTELSAPSPLYLDENEKPVLKNYQDMVVHGCGCRGQAKRKGYKRLKSSCKRHPLYVDFKDVGWNDHAVAPPGYHAFYCHGECPFPLADHLNSDNHAIVQTKVNSV
modifications: disulfides C59-C59 (inter), C8-C43 (intra), C9-C41 (intra), C88-C92 (intra)
notes: as for B1

Kd [7]: 31.2 nM | Kd [1]: 31.2 nM
B6: SEQ ID NO: 308, cysteine pairs C8-C9^a (designed binder)
chain: NSKDPKACCVPTELSAPSPLYLDENEKPVLKNYQDMVVHGCGCRGQAKRKGYKRLKSSCKRHPLYVDFKDVGWNDHAVAPPGYHAFYCHGECPFPLADHLNSDNHAIVQTKVNSV
modifications: disulfides C8-C9 (intra)

Kd [8]: 8.42 nM | Kd [1]: 8.42 nM
B7: SEQ ID NO: 324, cysteine pairs C15-C15^b, C79-C114^a, C80-C112^a, C44-C48^a (designed binder)
chain: AQAKHKQRKRLKSSCKRHPLYVDFKDVGWNDHAVAPPGYHAFYCHGECPFPLADHLNSDNHAIVQTKVNSVNSKIPKACCVPTELSAISMLYLDENEKVVLKNYQDMVVEGCGCR
modifications: disulfides C15-C15 (inter), C79-C114 (intra), C80-C112 (intra), C44-C48 (intra)
notes: as for B1

Kd [9]: 28.5 nM | Kd [1]: 28.5 nM
B8: SEQ ID NO: 332, cysteine pairs C79-C80^a (designed binder)
chain: GQAKRKGYKRLKSSCKRHPLYVDFSDVGWNDWIVAPPGYHAFYCHGECPFPLADHLNSTNHAIVQTLVNSVNSKDPKACCVPTELSAPSPLYLDENEKPVLKNYQDMVVHGCGCR
modifications: disulfides C79-C80 (intra)

Kd [1]: 7.18 nM | Kd [10]: 7.18 nM
B9: SEQ ID NO: 332, cysteine pairs C15-C15^b, C80-C112^a, C79-C114^a, C44-C48^a (designed binder)
chain: GQAKRKGYKRLKSSCKRHPLYVDFSDVGWNDWIVAPPGYHAFYCHGECPFPLADHLNSTNHAIVQTLVNSVNSKDPKACCVPTELSAPSPLYLDENEKPVLKNYQDMVVHGCGCR
modifications: disulfides C15-C15 (inter), C80-C112 (intra), C79-C114 (intra), C44-C48 (intra)
notes: as for B1

Kd [11]: 5.98 nM | Kd [1]: 5.98 nM
B10: SEQ ID NO: 332, cysteine pairs C15-C15^b, C80-C114^a, C79-C112^a, C44-C48^a (designed binder)
chain: GQAKRKGYKRLKSSCKRHPLYVDFSDVGWNDWIVAPPGYHAFYCHGECPFPLADHLNSTNHAIVQTLVNSVNSKDPKACCVPTELSAPSPLYLDENEKPVLKNYQDMVVHGCGCR
modifications: disulfides C15-C15 (inter), C80-C114 (intra), C79-C112 (intra), C44-C48 (intra)
notes: as for B1

Kd [12]: 28.9 nM | Kd [1]: 28.9 nM
B11: SEQ ID NO: 316, cysteine pairs C8-C67^a (designed binder)
chain: NSKDPKACCVPTELSAPSPLYLDENEKPVLKNYQDMVVHGCGCRVDFKDVGWNDHAVAPPGYHAFYCHGECPFPLADHLNSDNHAIVQTKVNSVGQAKRKGYKRLKSSCKRHPLY
modifications: disulfides C8-C67 (intra)

Kd [13]: 6.17 nM | Kd [1]: 6.17 nM
B12: SEQ ID NO: 316, cysteine pairs C67-C71^a, C8-C43^a, C9-C41^a, C109-C109^b (designed binder)
chain: NSKDPKACCVPTELSAPSPLYLDENEKPVLKNYQDMVVHGCGCRVDFKDVGWNDHAVAPPGYHAFYCHGECPFPLADHLNSDNHAIVQTKVNSVGQAKRKGYKRLKSSCKRHPLY
modifications: disulfides C67-C71 (intra), C8-C43 (intra), C9-C41 (intra), C109-C109 (inter)
notes: as for B1

Kd [14]: 5.78 nM | Kd [1]: 5.78 nM
B13: SEQ ID NO: 316, cysteine pairs C67-C71^a, C8-C43^b, C9-C41^b, C109-C109^b (designed binder)
chain: NSKDPKACCVPTELSAPSPLYLDENEKPVLKNYQDMVVHGCGCRVDFKDVGWNDHAVAPPGYHAFYCHGECPFPLADHLNSDNHAIVQTKVNSVGQAKRKGYKRLKSSCKRHPLY
modifications: disulfides C67-C71 (intra), C8-C43 (inter), C9-C41 (inter), C109-C109 (inter)
notes: as for B1

Kd [15]: 7.37 nM | Kd [1]: 7.37 nM
B14: SEQ ID NO: 300, cysteine pairs C23-C27^a, C65-C65^b, C79-C114^a, C80-C112^a (designed binder)
chain: VDFKDVGWNDHAVAPPGYHAFYCHGECPFPLADHLNSDNHAIVQTKVNSVGQAKRKGYKRLKSSCKRHPLYNSKDPKACCVPTELSAPSPLYLDENEKPVLKNYQDMVVHGCGCR
modifications: disulfides C23-C27 (intra), C65-C65 (inter), C79-C114 (intra), C80-C112 (intra)
notes: as for B1

Kd [16]: 67.4 nM
Binder: VDFSDVGWNDWIVAPPGYHAFYCHGECPFPLADHLNSDNHAIVQTLVNSV [Clone No. 17 domain (ActRIIBecd-associated polypeptide)]

Kd [17]: 64.1 nM
Binder: VDFSDVGWNDHAVAPPGYHAFYCHGECPFPLADHLNSTNHAIVQTLVNSV [Clone No. 18 domain (ActRIIBecd-associated polypeptide)]
